In paper PMC9279154 (Nature, 2022):

B2: Dcr-2(D1217N/D1476N), catalytically inactive mutant (enzyme, Drosophila melanogaster, UniProt A1ZAW0 1-1722, looked up)
chain: MEDVEIKPRGYQLRLVDHLTKSNGIVYLPTGSGKTFVAILVLKRFSQDFDKPIESGGKRALFMCNTVELARQQAMAVRRCTNFKVGFYVGEQGVDDWTRGMWSDEIKKNQVLVGTAQVFLDMVTQTYVALSSLSVVIIDECHHGTGHHPFREFMRLFTIANQTKLPRVVGLTGVLIKGNEITNVATKLKELEITYRGNIITVSDTKEMENVMLYATKPTEVMVSFPHQEQVLTVTRLISAEIEKFYVSLDLMNIGVQPIRRSKSLQCLRDPSKKSFVKQLFNDFLYQMKEYGIYAASIAIISLIVEFDIKRRQAETLSVKLMHRTALTLCEKIRHLLVQKLQDMTYDDDDDNVNTEEVIMNFSTPKVQRFLMSLKVSFADKDPKDICCLVFVERRYTCKCIYGLLLNYIQSTPELRNVLTPQFMVGRNNISPDFESVLERKWQKSAIQQFRDGNANLMICSSVLEEGIDVQACNHVFILDPVKTFNMYVQSKGRARTTEAKFVLFTADKEREKTIQQIYQYRKAHNDIAEYLKDRVLEKTEPELYEIKGHFQDDIDPFTNENGAVLLPNNALAILHRYCQTIPTDAFGFVIPWFHVLQEDERDRIFGVSAKGKHVISINMPVNCMLRDTIYSDPMDNVKTAKISAAFKACKVLYSLGELNERFVPKTLKERVASIADVHFEHWNKYGDSVTATVNKADKSKDRTYKTECPLEFYDALPRVGEICYAYEIFLEPQFESCEYTEHMYLNLQTPRNYAILLRNKLPRLAEMPLFSNQGKLHVRVANAPLEVIIQNSEQLELLHQFHGMVFRDILKIWHPFFVLDRRSKENSYLVVPLILGAGEQKCFDWELMTNFRRLPQSHGSNVQQREQQPAPRPEDFEGKIVTQWYANYDKPMLVTKVHRELTPLSYMEKNQQDKTYYEFTMSKYGNRIGDVVHKDKFMIEVRDLTEQLTFYVHNRGKFNAKSKAKMKVILIPELCFNFNFPGDLWLKLIFLPSILNRMYFLLHAEALRKRFNTYLNLHLLPFNGTDYMPRPLEIDYSLKRNVDPLGNVIPTEDIEEPKSLLEPMPTKSIEASVANLEITEFENPWQKYMEPVDLSRNLLSTYPVELDYYYHFSVGNVCEMNEMDFEDKEYWAKNQFHMPTGNIYGNRTPAKTNANVPALMPSKPTVRGKVKPLLILQKTVSKEHITPAEQGEFLAAITASSAADVFDMERLEILGNSFLKLSATLYLASKYSDWNEGTLTEVKSKLVSNRNLLFCLIDADIPKTLNTIQFTPRYTWLPPGISLPHNVLALWRENPEFAKIIGPHNLRDLALGDEESLVKGNCSDINYNRFVEGCRANGQSFYAGADFSSEVNFCVGLVTIPNKVIADTLEALLGVIVKNYGLQHAFKMLEYFKICRADIDKPLTQLLNLELGGKKMRANVNTTEIDGFLINHYYLEKNLGYTFKDRRYLLQALTHPSYPTNRITGSYQELEFIGNAILDFLISAYIFENNTKMNPGALTDLRSALVNNTTLACICVRHRLHFFILAENAKLSEIISKFVNFQESQGHRVTNYVRILLEEADVQPTPLDLDDELDMTELPHANKCISQEAEKGVPPKGEFNMSTNVDVPKALGDVLEALIAAVYLDCRDLQRTWEVIFNLFEPELQEFTRKVPINHIRQLVEHKHAKPVFSSPIVEGETVMVSCQFTCMEKTIKVYGFGSNKDQAKLSAAKHALQQLSKCDA
notes: Dicer-2 (Dcr-2), Drosophila melanogaster, UniProt A1ZAW0, full length with D1217N and D1476N; also called Dcr-2(DDNN); Dcr-2^DDNN; source: sf9 cells (Bac-to-Bac baculovirus), purified (Ni-NTA, Hitrap Q, 2nd Ni-NTA, SEC)

Assays:
[1] = target: Dcr-2 delta-dsRBD;Loqs-PD (Drosophila melanogaster;Drosophila …, UniProt A1ZAW0;Q9VJY9-4 1-1628;1-359, |); test: cryo-EM; ATP, Mg2+; no further dsRNA bending; Cryo-EM and EMSA buffers not given in the material; with or without ATP and Mg2+; settings: protein: recombinant;recombinant; tags: Ni-NTA purified;6xHis-SUMO removed by ULP1; copies: 1;1; 3' overhang 2 nt (UU) at both ends; 50 bp; self-complementary, 2 copies of one strand
Dcr-2 DDNN;Loqs-PD = Dcr-2 DDNN;Loqs-PD (Drosophila melanogaster;Drosophila …, UniProt A1ZAW0;Q9VJY9-4 1-1722;1-359, D1217N;D1476N|); test: cryo-EM; no ATP; initial binding state, dimer, 3.1 A; Cryo-EM and EMSA buffers not given in the material; with or without ATP and Mg2+; settings: protein: recombinant;recombinant; tags: Ni-NTA purified;6xHis-SUMO removed by ULP1; copies: 1;1; 3' overhang 2 nt (UU) at both ends; 50 bp; self-complementary, 2 copies of one strand
Dcr-2 WT;Loqs-PD = Dcr-2 WT;Loqs-PD (Drosophila melanogaster;Drosophila …, UniProt A1ZAW0;Q9VJY9-4 1-1722;1-359, |); test: cryo-EM; ATP, Mg2+; post-dicing state, RNA cleaved 21 bp from terminus, 4.6 A; Cryo-EM and EMSA buffers not given in the material; with or without ATP and Mg2+; settings: protein: recombinant;recombinant; tags: Ni-NTA purified;6xHis-SUMO removed by ULP1; copies: 1;1; 3' overhang 2 nt (UU) at both ends; 50 bp; self-complementary, 2 copies of one strand
[2] = target: the molecule itself; test: cryo-EM structure; Dcr-2^DDNN–Loqs-PD with 50 bp dsRNA, without ATP: initial dsRNA-binding state (dimer), 3.1 Å
[3] = target: B2; test: as above; settings: both partners purified
[4] = target: T1, Drosophila melanogaster Dicer-2 (Dcr-2), wild type (Drosophila melanogaster, UniProt A1ZAW0 1-1722); test: cryo-EM structure; Dcr-2^DDNN–Loqs-PD in the apo state (no dsRNA, no ATP); Dcr-2^DDNN–Loqs-PD with 50 bp dsRNA, ATP and Mg2+ (early-translocation, mid-translocation and active dicing states); WT Dcr-2–Loqs-PD with 50 bp dsRNA, ATP and Mg2+ (post-dicing state); settings: both partners purified
T1 construct: Dicer-2 (Dcr-2), Drosophila melanogaster, UniProt A1ZAW0, full length; The pull-down methods call it 'untagged Dcr-2'; also called WT Dcr-2; Dcr-2^WT; source: sf9 cells (Bac-to-Bac baculovirus), purified (Ni-NTA, Hitrap Q, 2nd Ni-NTA, SEC)

[5] = target: T1, Drosophila melanogaster Dicer-2 …; test: pull-down; 1.25 μM His-tagged Loqs-PD and 0.6 μM untagged Dcr-2 mixed on ice for 30 min, then Ni-NTA agarose; 200 mM NaCl, 20 mM Tris pH 8.0, 5% glycerol, 20 mM imidazole, 4 °C, 1 h; SDS–PAGE; settings: both partners purified

B1: 50 bp palindromic dsRNA (dsRNA)
RNA 1: GAGACUUGGGCAAUGUGACUGCUGAUCAGCAGUCACAUUGCCCAAGUCUCUU
RNA 2: GAGACUUGGGCAAUGUGACUGCUGAUCAGCAGUCACAUUGCCCAAGUCUCUU
modifications: 5'-monophosphate on both strands
[1]
  binding result: binds
Dcr-2 DDNN;Loqs-PD
  binding result: binds
Dcr-2 WT;Loqs-PD
  binding result: binds

## B2
[2]
  stoichiometry N: 2

B3: Drosophila melanogaster Loquacious-PD (Loqs-PD), full length, tag removed (natural protein, UniProt Q9VJY9-4 1-359, looked up)
chain: MDQENFHGSSLPQQLQNLHIQPQQASPNPVQTGFAPRRHYNNLVGLGNGNAVSGSPVKGAPLGQRHVKLKKEKISAQVAQLSQPGQLQLSDVGDPALAGGSGLQGGVGLMGVILPSDEALKFVSETDANGLAMKTPVSILQELLSRRGITPGYELVQIEGAIHEPTFRFRVSFKDKDTPFTAMGAGRSKKEAKHAAARALIDKLIGAQLPESPSSSAGPSVTGLTVAGSGGDGNANATGGGDASDKTVGNPIGWLQEMCMQRRWPPPSYETETEVGLPHERLFTIACSILNYREMGKGKSKKIAKRLAAHRMWMRLQETPIDSGKISDSICGELEGEVSIIQDIDRYEQVSKDFEFIKI
notes: Loquacious-PD (Loqs-PD), Drosophila melanogaster, UniProt M9MRT5, full length (C-terminal residue Ile359); also called DmLoqs-PD; Loqs-PD^FL; source: E. coli BL21 (DE3), purified (Ni-NTA, ULP1 cleavage, 2nd Ni-NTA, SEC)
[3]
  binding result: binds
[4]
  binding result: binds

B4: His-tagged Loqs-PD, wild type (natural protein, Drosophila melanogaster, UniProt Q9VJY9-4 1-359, looked up)
chain: MDQENFHGSSLPQQLQNLHIQPQQASPNPVQTGFAPRRHYNNLVGLGNGNAVSGSPVKGAPLGQRHVKLKKEKISAQVAQLSQPGQLQLSDVGDPALAGGSGLQGGVGLMGVILPSDEALKFVSETDANGLAMKTPVSILQELLSRRGITPGYELVQIEGAIHEPTFRFRVSFKDKDTPFTAMGAGRSKKEAKHAAARALIDKLIGAQLPESPSSSAGPSVTGLTVAGSGGDGNANATGGGDASDKTVGNPIGWLQEMCMQRRWPPPSYETETEVGLPHERLFTIACSILNYREMGKGKSKKIAKRLAAHRMWMRLQETPIDSGKISDSICGELEGEVSIIQDIDRYEQVSKDFEFIKI
notes: Loquacious-PD (Loqs-PD), Drosophila melanogaster, UniProt M9MRT5, full length; The only construct described is in a modified pET28a with a 6×His-SUMO tag; also called WT; source: E. coli BL21 (DE3), purified
[5]
  binding result: binds
